Reference: patent publication US20240398942A1 (CHIA TAI TIANQING PHARMACEUTICAL GROUP, published 2024)
Where a chain is given by its changes, count along the chain named.

B1: BM1 (dacetuzumab) (antibody, human IgG1, kappa, V domains shown)
VH: EVQLVESGGGLVQPGGSLRLSCAASGYSFTGYYIHWVRQAPGKGLEWVARVIPNAGGTSYNQKFKGRFTLSVDNSKNTAYLQMNSLRAEDTAVYYCAREGIYWWGQGTLVTVSS
VL: DIQMTQSPSSLSASVGDRVTITCRSSQSLVHSNGNTFLHWYQQKPGKAPKLLIYTVSNRFSGVPSRFSGSGSGTDFTLTISSLQPEDFATYFCSQTTHVPWTFGQGTKVEIKR
notes: Benchmark antibody, prepared in-house; also called CD40-BM1; benchmark
B2: BM2 (selicrelumab) (antibody, human IgG2, kappa, V domains shown)
VH: not shown
VL: DIQMTQSPSSVSASVGDRVTITCRASQGIYSWLAWYQQKPGKAPNLLIYTASTLQSGVPSRFSGSGSGTDFTLTISSLQPEDFATYYCQQANIFPLTFGGGTKVEIKR
notes: Benchmark antibody, prepared in-house; also called CD40-BM2; benchmark
B3: mouse anti-CD40 monoclonal antibody C1H1 (antibody, V domains shown)
VH: EVKLVESGGGLVKPGASLKLSCAASGFTFSNYGISWVRQTSDKRLEWVASISSGGDNTYYPDNVKGRFTISRENAKNTLYLQMSSLKSEDTALYYCARAGEKAMDYWGQGTSVTVSS
VL: DIVLTQSPVTLSVTPGDSVSLSCRASQTINNNLHWYQQKSHESPRLLIKYASQSISGIPSRFSGSGSGTDFTLSINSVETEDFGIYFCQQFSSWPLTFGAGTKLELK
notes: Parent mouse antibody from a hybridoma; the mouse constant regions are not; also called Mouse C1H1
B4: chimeric antibody C1H1 (antibody, human IgG1, kappa, V domains shown)
VH: B3 VH
VL: DIVLTQSPVTLSVTPGDSVSLSCRASQTINNNLHWYQQKSHESPRLLIKYASQSISGIPSRFSGSGSGTDFTLSINSVETEDFGIYFCQQFSSWPLTFGAGTKLELKR
notes: also called Chimeric C1H1
B5: humanized antibody huC1H1-V1 (antibody, human IgG2, kappa, V domains shown)
VH: EVQLVESGGGLVKPGGSLRLSCAASGFTFSNYGISWVRQAPGKGLEWVASISSGGDNTYYPDNVKGRFTISRDNAKNSLYLQMNSLRAEDTAVYYCARAGEKAMDYWGQGTLVTVSS
VL: EIVLTQSPATLSLSPGERATLSCRASQTINNNLHWYQQKPGQAPRLLIKYASQSISGIPARFSGSGSGTDFTLTISSLEPEDFAVYFCQQFSSWPLTFGGGTKVEIKR
notes: Human IgG2 / kappa
B6: humanized antibody huC1H1-V2 (antibody, human IgG2, kappa, V domains shown)
VH: B5 VH with A49S
VL: B5 VL
notes: Human IgG2 / kappa

What follows are binders tested against T1, human CD40-Fc protein (human, biotinylated (sites not given) in the capture ELISA and the benchmark blocking ELISA; not biotinylated in the ligand blocking ELISA) (assay: capture ELISA: antibody captured on coated goat anti-human IgG F(ab')2, biotinylated human CD40-Fc 1.15 nM, streptavidin-HRP, OD(450-630)).
T1 construct: also called biotinylated human CD40-Fc
Experimental: The plate was washed once with a washing buffer (PBS+0.05% v/v of Tween-20, PBST) and then blocked with 200 μL/well blocking buffer (PBST containing 5% w/v of skim milk) for 2 h at 37° C. The plate was washed 4 times, and the anti-CD40 antibody of the present application, BM1, BM2, and a negative control hIgG (human immunoglobulin for intravenous injection (pH 4), Hualan Biological Engineering Inc.) serially 5-fold diluted from 66.7 nM in a PBST containing 2.5% w/v of skim milk was added at 100 μL per well. The plate was incubated for 40 min at 37° C. and washed 4 times. A biotinylated human CD40-Fc protein (amino acid residues 21-193 of SEQ ID NO: 30 linked to the N terminus of amino acid residues 99-330 of SEQ ID NO: 28, dissolved in PBST containing 2.5% w/v of skim milk at a concentration of 1.15 nM) was added at 100 μL/well to a 96-well plate coated with the anti-CD40 antibody. The plate was incubated at 37° C. for 40 min and washed 4 times. An HRP-labeled streptavidin (diluted at 1:10000 in PBST, Jackson Immuno Research, Cat. No. 016-030-084) was added at 100 μL/well, and the plate was incubated at 37° C. for another 40 min. After the last wash, 100 μL/well of ELISA substrate TMB (Innoreagents, Cat. No. TMB-S-002) was added and the plate was incubated at room temperature. After 3-10 min, the reaction was stopped by adding 1 M H₂SO₄ at 50 µL/well, and the absorbance of each well was read on a microplate reader using the dual wavelength mode (TMB detection wavelength: 450 nm, reference wavelength: 630 nm). Curves of OD(450-630) values vs. antibody concentration were plotted. Data were analyzed using Graphpad Prism software, and EC₅₀ values were obtained.

Row | EC50 [nM] | Binder
1 | 0.59 | B1
2 | 1.34 | B2
3 | 0.203 | B3
4 | 0.343 | B4

Each binder was assayed against T1, human CD40-Fc protein (assay: competitive ELISA: BM2 (selicrelumab) coated as competitor, antibody titrated and pre-mixed with biotinylated human CD40-Fc 0.23 nM, streptavidin-HRP, OD(450-630)).
Experimental: The ability of the anti-CD40 antibody of the present application to block the binding of the benchmark to human CD40 was determined by competitive ELISA. Briefly, BM2 antibody was immobilized on a 96-well micro plates at 1 μg/mL in PBS, 100 µL/well, and incubated overnight at 4° C. The next day, the plate was washed once with a washing buffer before a blocking buffer (PBST containing 5% w/v of skim milk) was added. The plate was then incubated at 37° C. for 2 h for blocking. During the blocking of the 96-well plate, the anti-CD40 antibody of the present application or the benchmark was serially 5-fold diluted from 66.7 nM with a biotinylated human CD40-Fc protein (amino acid residues 21-193 of SEQ ID NO: 30 linked to the N terminus of amino acid residues 99-330 of SEQ ID NO: 28, dissolved in PBST containing 2.5% w/v of skim milk at a concentration of 0.23 nM) and then incubated at room temperature for 40 min. After the plate was washed 4 times, the antibody/biotinylated human CD40-Fc mixture was added at 100 μL/well to the plate coated with BM2. The plate was incubated at 37° C. for 40 min and again washed 4 times with the washing buffer. An HRP-labeled streptavidin was added at 100 μL/well, and the plate was incubated at 37° C. for 40 min to detect biotinylated human CD40-Fc immobilized on the plate. Again, the plate was washed 4 times with the washing buffer. Finally, TMB was added and the reaction was stopped by adding 1 M H₂SO₄. The absorbance was read on a microplate reader using the dual wavelength mode (TMB detection wavelength: 450 nm, reference wavelength: 630 nm). Curves of OD(450-630) values vs. antibody concentration were plotted. Data were analyzed using Graphpad Prism software, and IC₅₀ values were obtained.

Row | IC50 [nM] | Binder
5 | 0.513 | B5
6 | 0.318 | B6
7 | 0.0461 | B1
8 | 0.125 | B3
9 | 0.16 | B4

Each binder was assayed against T2, recombinant human CD40-his (Acro biosystems, Cat. No. CD0-H5228) (human, UniProt P25942 21-193) (assay: SPR (Biacore T200), antibody captured on anti-human IgG chip, CD40-his as analyte, 1:1 fit).
T2 construct: Bought protein; also called human CD40-his protein; not shown: His tag
Excerpt: (§1) Briefly, a goat anti-human IgG (GE Healthcare, Cat. No. BR100839, human antibody capture kit) was covalently linked to a CM5 chip (GE Healthcare, Cat. No. BR100530, carboxymethylated dextran-coated chip) via the primary amine group using a standard amine coupling kit supplied by Biacore (GE Healthcare, Pittsburgh, PA, USA). Unreacted portions on the biosensor surface were blocked with ethanolamine. Then, the anti-CD40 antibody of the present application and two benchmark antibodies (BM1 (dacetuzumab, Genentech Inc., also referred to CD40-BM1, prepared in-house; the heavy and light chain amino acid sequences are set forth in SEQ ID NOs: 40 and 41, respectively) and BM2 (selicrelumab, Abgenix Inc., also referred to CD40-BM2, prepared in-house; the heavy and light chain amino acid sequences are set forth in SEQ ID NOS: 42 and 43, respectively)) at a concentration of 66.67 nM were directed through the chip at a flow rate of 10 μL/min. Then, serially diluted recombinant human CD40-his (Acro biosystems, Cat. No. CD0-H5228, serially 2-fold diluted from 80 nM in HBS-EP⁺ buffer (supplied by Biacore)) or cynomolgus monkey CD40-his protein (Acro biosystems, Cat. No. CD0-C52H6, serially 2-fold diluted from 80 nM in HBS-EP⁺ buffer (supplied by Biacore)) was directed through the chip at a flow rate of 30 μL/min. The antigen-antibody binding kinetics was tracked for 2 min and the dissociation kinetics was tracked for 10 min. The association and dissociation curves were fitted to a 1:1 Langmuir binding model using BIAcore evaluation software. KD, Kₐ, and Kd values were determined.

Row | Kd [nM] | koff [s⁻¹] | kon [M⁻¹ s⁻¹] | Binder
10 | 1.1 | 0.00248 | 2.25e+06 | B5
11 | 1.17 | 0.0027 | 2.31e+06 | B6
12 | 9.42 | 0.00756 | 803000 | B1
13 | 7.84 | 0.00162 | 206000 | B2
14 | 0.884 | 0.00222 | 2.51e+06 | B4

These binders were tested against T3, cynomolgus monkey CD40-his protein (Acro biosystems, Cat. No. CD0-C52H6) (cynomolgus monkey, UniProt G7PG38 21-193) in the same assay as above.
T3 construct: Bought protein; not shown: His tag
Excerpt: as §1

Row | Kd [nM] | koff [s⁻¹] | kon [M⁻¹ s⁻¹] | Binder
15 | 1.11 | 0.00237 | 2.14e+06 | B5
16 | 1.07 | 0.00274 | 2.56e+06 | B6
17 | 9.68 | 0.0074 | 764000 | B1
18 | 8.73 | 0.00151 | 173000 | B2
19 | 0.846 | 0.00215 | 2.54e+06 | B4
